Paper PMC7337405, “A secreted LysM effector protects fungal hyphae through chitin-dependent homodimer polymerization” (PLoS Pathogens, 2020)

Tests used:
[1] = target: T1, Mg1LysM (Zymoseptoria tritici, UniProt F9XHX3); experiment: X-ray crystal structure of the complex ([…] Å); type: binding; settings: P. pastoris-produced protein; ligand co-purified from host cell wall; site between two protomers of neighbouring homodimers
T1 construct: mature single-LysM effector, signal peptide absent; ITC: E. coli Origami pET-SUMO, His-SUMO cut off by ULP1; crystal: P. pastoris GS115, His-FLAG tag; ligand-independent homodimer; chitin site formed by two protomers of neighbouring homodimers

[2] = target: (GlcNAc)6; experiment: ITC

Compound	X-ray crystal structure of the complex (2.41 Å) [1]	other: stoichiometry N [2]
CC(=O)N[C@H]1[C@H](O[C@H]2[C@H](O)[C@@H](NC(C)=O)C(O)O[C@@H]2CO)O[C@H](CO)[C@@H](O[C@@H]2O[C@H](CO)[C@@H](O)[C@H](O)[C@H]2NC(C)=O)[C@@H]1O (stereo partly shown) [chitin trimer]	well-defined electron density for a single chitin trimer bound to one monomer of the a.u.	
Mg1LysM (Zymoseptoria tritici LysM effector), wild type, produced in E. coli (from UniProt A0A1X7S147) D54A		0.902
Mg1LysM (Zymoseptoria tritici LysM effector), wild type, produced in E. coli (from UniProt A0A1X7S147) K31A		0.97
Mg1LysM (Zymoseptoria tritici LysM effector), wild type, produced in E. coli (from UniProt A0A1X7S147) T28R		0.956
